Test results from patent US6713604 (TEXAS BIOTECHNOLOGY, dated 2004).
Bridges are numbered along the chain shown (N, C = ends). Where no end group is shown, it is not given here. [ ]: non-standard residue; d: D form. MPEG5000 = polyethyleneglycol of 5000 molecular weight, attached to the N-terminal Cys; dPen = CC(C)(S)[C@@H](N)C(=O)O

B1: SEQ ID NO 41 (peptide)
peptide: MPEG5000-CWLDVC-OH
modifications: disulfide 1-6
notes: Disulfide cyclic peptide; also called MPEG5000-Cys-Trp-Leu-Asp-Val-Cys-acid
B2: SEQ ID NO 10 (peptide)
peptide: {CH2CO}-EWLDVC-OH
modifications: thioether N-6; also: sulfide, sulfoxide or sulfone not given here
notes: also called CH2CO-Glu-Trp-Leu-Asp-Val-Cys-acid
B3: SEQ ID NO 9 (peptide)
peptide: SWLDVC-OH
modifications: thioether (positions not given here); not fully specified (N-terminus, bridges); printed as CH2CO-Ser-Trp-Leu-Asp-Val-Cys-acid; also: sulfide, sulfoxide or sulfone not given here
notes: also called CH2CO-Ser-Trp-Leu-Asp-Val-Cys-acid
B4: SEQ ID NO 38 (peptide)
peptide: CEFLDYC-OH
modifications: disulfide 1-7; N-terminus assumed
SMILES: CC(C)C[C@@H]1NC(=O)[C@H](Cc2ccccc2)NC(=O)[C@H](CCC(=O)O)NC(=O)[C@@H](N)CSSC[C@@H](C(=O)O)NC(=O)[C@H](Cc2ccc(O)cc2)NC(=O)[C@H](CC(=O)O)NC1=O
notes: Disulfide cyclic peptide; also called Cys-Glu-Phe-Leu-Asp-Tyr-Cys-acid
B5: SEQ ID NO 3 (peptide)
peptide: cyclo(EWLDVD)
modifications: not fully specified (residue 3)
notes: Head-to-tail cyclic lactam; also called Glu-Trp-Leu-Asp-Val-Asp
B6: SEQ ID NO 7 (peptide)
peptide: GPEFLDV
modifications: cyclic: lactam formed by condensation of the N and C terminus
notes: Head-to-tail cyclic lactam; also called Gly-Pro-Glu-Phe-Leu-Asp-Val
B7: SEQ ID NO 35 (peptide)
peptide: [dC]EWLDVC-OH
modifications: disulfide 1-7; N-terminus assumed
SMILES: CC(C)C[C@@H]1NC(=O)[C@H](Cc2c[nH]c3ccccc23)NC(=O)[C@H](CCC(=O)O)NC(=O)[C@H](N)CSSC[C@@H](C(=O)O)NC(=O)[C@H](C(C)C)NC(=O)[C@H](CC(=O)O)NC1=O
notes: Disulfide cyclic peptide; also called dCys-Glu-Trp-Leu-Asp-Val-Cys-acid
B8: SEQ ID NO 40 (peptide)
peptide: CPEWLDVC-OH
modifications: disulfide 1-8; N-terminus assumed
SMILES: CC(C)C[C@@H]1NC(=O)[C@H](Cc2c[nH]c3ccccc23)NC(=O)[C@H](CCC(=O)O)NC(=O)[C@@H]2CCCN2C(=O)[C@@H](N)CSSC[C@@H](C(=O)O)NC(=O)[C@H](C(C)C)NC(=O)[C@H](CC(=O)O)NC1=O
notes: Disulfide cyclic peptide
B9: SEQ ID NO 42 (peptide)
peptide: [dPen]WLDVC-OH
modifications: disulfide 1-6; N-terminus assumed
SMILES: CC(C)C[C@@H]1NC(=O)[C@H](Cc2c[nH]c3ccccc23)NC(=O)[C@H](N)C(C)(C)SSC[C@@H](C(=O)O)NC(=O)[C@H](C(C)C)NC(=O)[C@H](CC(=O)O)NC1=O
notes: Disulfide cyclic peptide; also called dPen-Trp-Leu-Asp-Val-Cys-acid
B10: SEQ ID NO 4 (peptide)
peptide: EWLDV
modifications: cyclic: lactam formed by condensation of the N and C terminus
notes: Head-to-tail cyclic lactam; also called Glu-Trp-Leu-Asp-Val
B11: SEQ ID NO 5 (peptide)
peptide: EWLDD
modifications: cyclic: lactam formed by condensation of the N and C terminus
notes: Head-to-tail cyclic lactam; also called Glu-Trp-Leu-Asp-Asp
B12: fusion protein of the two N-terminal domains of human VCAM with the hinge, CH2 and CH3 regions of mouse IgG2A (Fc fusion, UniProt P19320 25-220, looked up)
chain: FKIETTPESRYLAQIGDSVSLTCSTTGCESPFFSWRTQIDSPLNGKVTNEGTTSTLTMNPVSFGNEHSYLCTATCESRKLEKGIQVEIYSFPKDPEIHLSGPLEAGKPITVKCSVADVYPFDRLEIDLLKGDHLMKSQEFLEDADRKSLETKSLEVTFTPVIEDIGKVLVCRAKLHIDEMDSVPTVRQAVKELQVY
notes: domain: two N-terminal domains; Secreted from transfected COS cells and captured on Dynal magnetic beads coated with goat anti-mouse IgG; also called VCAM-1; purified VCAM; not shown: mouse IgG2A hinge, CH2 and CH3 regions, amplified from cDNA of the hybridoma cell line 402C10
B13: SEQ ID NO 39 (peptide)
peptide: [dC]SWLDV[dC]-OH
modifications: disulfide 1-7; N-terminus assumed
SMILES: CC(C)C[C@@H]1NC(=O)[C@H](Cc2c[nH]c3ccccc23)NC(=O)[C@H](CO)NC(=O)[C@H](N)CSSC[C@H](C(=O)O)NC(=O)[C@H](C(C)C)NC(=O)[C@H](CC(=O)O)NC1=O

Target: T1, integrin α4β1 (human, UniProt P13612 34-1032; P05556 21-798)
T1 construct: whole, on cells; also called VLA-4; very late antigen-4
T1 sequence (P13612 34-1032, chain 1 of 2): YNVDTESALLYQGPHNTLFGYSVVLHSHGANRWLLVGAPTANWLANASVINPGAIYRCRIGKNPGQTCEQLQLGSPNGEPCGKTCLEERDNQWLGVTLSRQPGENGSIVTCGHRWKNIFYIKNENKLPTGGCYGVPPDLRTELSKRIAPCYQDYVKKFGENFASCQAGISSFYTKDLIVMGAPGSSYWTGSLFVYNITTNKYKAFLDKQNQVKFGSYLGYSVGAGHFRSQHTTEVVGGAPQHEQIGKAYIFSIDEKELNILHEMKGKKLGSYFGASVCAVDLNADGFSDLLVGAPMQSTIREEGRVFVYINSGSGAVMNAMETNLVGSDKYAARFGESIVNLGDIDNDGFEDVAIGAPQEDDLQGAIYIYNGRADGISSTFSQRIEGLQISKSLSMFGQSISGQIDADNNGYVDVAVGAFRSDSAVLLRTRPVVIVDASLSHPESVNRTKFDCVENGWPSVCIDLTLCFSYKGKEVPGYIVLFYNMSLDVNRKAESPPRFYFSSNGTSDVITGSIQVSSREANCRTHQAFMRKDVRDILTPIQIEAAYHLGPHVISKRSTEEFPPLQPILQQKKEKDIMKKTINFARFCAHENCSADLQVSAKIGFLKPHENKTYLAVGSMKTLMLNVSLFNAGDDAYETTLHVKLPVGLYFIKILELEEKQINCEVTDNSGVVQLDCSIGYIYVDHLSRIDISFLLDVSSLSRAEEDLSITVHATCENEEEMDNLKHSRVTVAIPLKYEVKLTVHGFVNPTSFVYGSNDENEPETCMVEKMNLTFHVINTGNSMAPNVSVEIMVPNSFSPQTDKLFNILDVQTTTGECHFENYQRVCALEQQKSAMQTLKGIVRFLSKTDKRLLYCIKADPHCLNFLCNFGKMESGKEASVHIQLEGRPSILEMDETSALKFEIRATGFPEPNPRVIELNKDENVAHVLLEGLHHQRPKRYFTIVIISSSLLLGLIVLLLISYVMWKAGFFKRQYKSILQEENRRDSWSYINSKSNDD
T1 sequence (P05556 21-798, chain 2 of 2): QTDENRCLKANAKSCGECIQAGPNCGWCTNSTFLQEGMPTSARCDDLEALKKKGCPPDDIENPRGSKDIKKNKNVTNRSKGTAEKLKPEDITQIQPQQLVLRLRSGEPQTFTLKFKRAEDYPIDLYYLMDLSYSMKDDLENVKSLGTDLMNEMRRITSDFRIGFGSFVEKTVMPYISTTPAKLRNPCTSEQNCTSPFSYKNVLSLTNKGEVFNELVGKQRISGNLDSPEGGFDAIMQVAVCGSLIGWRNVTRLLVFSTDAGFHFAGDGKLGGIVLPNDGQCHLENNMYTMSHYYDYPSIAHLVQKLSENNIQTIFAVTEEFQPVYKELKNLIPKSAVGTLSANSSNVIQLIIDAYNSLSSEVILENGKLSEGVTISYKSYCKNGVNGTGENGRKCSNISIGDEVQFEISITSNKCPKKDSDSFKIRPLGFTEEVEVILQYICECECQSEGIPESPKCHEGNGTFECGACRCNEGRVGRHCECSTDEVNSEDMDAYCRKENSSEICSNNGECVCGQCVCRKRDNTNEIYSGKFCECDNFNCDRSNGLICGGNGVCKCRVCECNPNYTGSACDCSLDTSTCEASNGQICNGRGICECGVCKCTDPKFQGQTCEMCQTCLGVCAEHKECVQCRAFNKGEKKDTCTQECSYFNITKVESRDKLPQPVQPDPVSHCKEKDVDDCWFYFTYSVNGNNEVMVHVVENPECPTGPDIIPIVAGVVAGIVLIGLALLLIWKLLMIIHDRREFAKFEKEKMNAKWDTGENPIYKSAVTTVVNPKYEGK
Assay: inhibition of HL-60 cell (α4β1) binding to VCAM-IgG coated beads, fluorimetry
Procedure: (§1) The media was collected and active protein was purified by immunoprecipitation using Dynal magnetic polystyrene beads coated with goat anti-mouse IgG. Following immunoprecipitation, the beads bound cells that expressed the integrin α_4β_1 such as Ramos and HL-60.
HL-60 cells were fluorescently labeled with Calcein AM C-3099 (Molecular Probes) and resuspended in 1 ml of binding buffer (Hank's balanced salt solution, pH 7.4, 1.0 mM CaCl_2, 1.0 mM MgCl_2). The beads (10 µl, 4×10^6 beads/ml) were placed in wells of a 96-well microtiter dish with 10 µl of peptide at various concentrations. The beads were incubated with 10 µl of labeled cells (10^7 cells/ml) for 10 min at room temperature. Following immobilization of the beads onto the plastic with a magnet, unbound cells were removed by washing three times with binding buffer. The remaining bound cells were lysed in 50 mM Tris, pH 7.4, 5.0 mM EDTA, 1.0% NP-40 and quantitated by fluorimetry using a Millipore Cytofluor 2350 fluorimeter. Dose response curves were calculated and IC$50$ values determined. Alternatively, the percent adhesion was determined at a single peptide concentration for comparison among peptides.

Row | Binder | peptide concentration that significantly inhibits binding [µM]
1 | B1 | < 10
2 | EWLDVPEWLDV (cyclic: lactam formed by condensation of the N and C terminus, Head-to-tail cyclic lactam) [SEQ ID NO 6] | < 10
3 | B2 | < 10
4 | B3 | < 10
5 | B4 | < 10
6 | B5 | < 10
7 | B6 | < 10
8 | B7 | < 10
9 | B8 | < 10
10 | B9 | < 10
11 | B10 | < 10
12 | B11 | < 10

Target: T1, integrin α4β1
Assay: VCAM-IgG fusion on goat anti-mouse IgG magnetic beads; binding of Ramos and HL-60 cells
Description: as §1

Row | Binder | binding result
13 | B12 | binds

Target: integrin α4β1 (human) (UniProt P13612)
Sequence (P13612 34-1032, chain 1 of 2): as the sequence (P13612 34-1032, chain 1 of 2) above
Sequence (P05556 21-798, chain 2 of 2, further chain): as the sequence (P05556 21-798, chain 2 of 2) above
Assay: inhibition of HL-60 cell (α4β1) binding to VCAM-IgG coated beads, fluorimetry

Row | Binder | peptide concentration that significantly inhibits binding [µM]
14 | B13 | < 10
